Test results: patent US20240409645A1 (DUALYX, published 2024)
Residue numbers refer to the chain shown, from its start.

B1: FJ1427_P035MP03E11 (VHH)
VHH: EVQLVESGGGLVQAGGSLRLSCVVSGDVFVRYTMAWFRQAPGKEREFVAAVTDSGRTTEYVDSVKGRFTVSRDNAKNTVYLQMNNLEPEDTAVYYCAANTDYFQIRSVDNNAWGQGTQVTVSS
notes: soluble VHH in periplasmic extract; also called clone nr
B2: FJ1427_P035MP03G08 (VHH)
VHH: QVQLVESGGGLVQAGGSLRLACALSGDVFVRYTMAWFRQAPGKGREFVASVTDSGRTTDYVASVQGRFTVSRDNNKNTVYLQMNSLKPEDTAVYYCAANTDYFQIRSLDRNTWGQGTQVTVSS
notes: as for B1
B3: FJ1427_P035MP03G09 (VHH)
VHH: B1 VHH with E1Q, A50V, E87K
notes: as for B1
B4: FJ1427_P035MP03G11 (VHH)
VHH: B1 VHH with V23A, V24A, A50S, E59D, E87K, V108L, D109E, N110F, A112T
notes: as for B1
B5: FJ1427_P035MP03H07 (VHH)
VHH: B1 VHH with E87K
notes: as for B1
B6: FJ1427_P035MP06A01 (VHH)
VHH: B2 VHH with G44E
notes: as for B1
B7: FJ1427_P035MP06B02 (VHH)
VHH: B1 VHH with E1Q, E87K
notes: soluble VHH in periplasmic extract; also called clone nr; 490
B8: FJ1427_P035MP06C01 (VHH)
VHH: B2 VHH with A21S, L24A, G44E, A62D, Q65K, N75A, S85A, R106K, R110L
notes: as for B1
B9: FJ1427_P035MP06E02 (VHH)
VHH: B1 VHH with E1Q, V23A, A50T, E87K, Q104R, V108L, N110A, A112T
notes: as for B1
B10: FJ1427_P035MP06H01 (VHH)
VHH: B1 VHH with V23A, A50S, E59D, D62H, E87K, R106K, V108L, N110A, A112T
notes: as for B1
B11: FJ1427 P035MP03E05 (VHH)
VHH: EVQLVESGGGLVQAGGSLRLSCAVSGVIFWSDVVGWYRQASGKQRELVATINLDDTKHYGEVVKGRFAISRDSHKNAYYLQLNSLKPEDTAVYYCNVRRGSEFYWGQGTQVTVSS
notes: as for B1
B12: FJ1427_P035MP03G05 (VHH)
VHH: EVQLVESGGGLVQIGGSLRLSCAASGRTFSSITMAYFRQVPGKEREWVAGINFSGTRTFYADSVKGRFLISRDDAKSTMYLQMNSLKPEDTAVYYCAASPRGFYGPGNALYDYWGQGTQVTVSS
notes: as for B1
B13: FJ1427 P035MP03A06 (VHH)
VHH: EVQLVESGGGLVQTGGSLRLSCAVSGSRFISDVMGWYRQVPGKARELVADMADGGSAKYADSVKGRFSIVRDSGKSTMYLQMSSLKPEDTGMYYCKAGLWIAGRHSDYWGQGTQVTVSS
notes: as for B1
B14: FJ1427_P035MP03E08 (VHH)
VHH: QVQLVESGGGLVQAGGSLRLSCAAAGRAIENYPVGWFRRAPGKEREFVAAITWISGSTLYADSVKGRFTISRDNAKNTVYLQMSSLKPEDTALYYCAAALKTITRGQNDYSYWGQGTQVTVSS
notes: as for B1
B15: FJ1427 P035MP03F09 (VHH)
VHH: B14 VHH with Q1E, R19T, A25S, I29F, E30S, R39Q, I54L, K65E, Q82L, Y95F
notes: as for B1
B16: FJ1427_P035MP03A07 (VHH)
VHH: QVQLVESGGGLVEAGGSLRLSCAASGRAFNNFPMGWFRQAPGKEREFVAAITWISGSTLYADSVKGRFTISRDKSKNTVYLQMSGLKPEDTALYYCAAALKTITRGQHDYTYWGQGTQVTVSS
notes: as for B1
B17: FJ1427_P035MP03C07 (VHH)
VHH: QVQLVESGGGLVQAGDSLRLSCAASGRSLSTDCMGWVRQAPGKEREFVAGITWGTGSTLYADSVEGRFTISKDNAKNTGYLQMSSLKPEDTAVYYCAVDRYCYRGTVYRDWGRGTQVTVSS
notes: as for B1
B18: FJ1427_P035MP03G07 (VHH)
VHH: QVQLVESGGGLVQAGGSLRLSCAASGRTFSSDAKGWFRQAPGKEREFVAAITWAGRGTDYADSVKGRFTITRDNAKNMVYLQMSNLKPEDTAVYYCALNPEGVIGPYFRNSNRYNYWGQGTQVTVSS
notes: as for B1
B19: FJ1427_P035MP03A09 (VHH)
VHH: QVQLVESGGGLVQAGGSLRLACAASGRTFSTLTMGWFRQAPGKEREFVAGISPSGGYAWHADSVKGRFTIDRDNAKNTVYLQTRSLRPEDTAVYYCAADHPPYGAVASRSEYEYDDWGPGTRVTVSS
notes: as for B1
B20: FJ1427_P035MP03H09 (VHH)
VHH: QVQLVESGGGLVQAGGSLRLSCAASGSIFSINAMGWFRQAPGKEREFVAAISRSGGSTAYVDSVKGRFTISRDNSKNMVHLQMNSLKSEDEAVYYCAATAAVGWTSRWITTDFDSWGQGTQVTVSS
notes: as for B1
B21: FJ1427_P035MP03D10 (VHH)
VHH: QVQLQESGGGLVQAGDSLRLSCVVSGRDFSGYTMGWFRQPPGKEREFVALITWSTGRVHYTDSVEGRFTISRDSAKNTVYLQMNSLKPEDTAVYTCAAGRVGYTTNLHSYDYSGQGTQVIVSA
notes: as for B1
B22: FJ1427_P035MP03E10 (VHH)
VHH: EVQLVESGGGLVQPGGSLRLSCAASGFTFRNYAMSWVRQAPGKGLEWVGGITGEGLGTIYQDSVEGRFTISRNNAKNTLYLQMNSLRSEDTAVYYCTKMASGTLFRDKPYEYTSRGQGTQVTVSS
notes: as for B1
B23: FJ1427_P035MP03G10 (VHH)
VHH: QVQLVESGGGLVQAGGSLRLSCAASGRSYAMGWFRQAPGKEREFVAAISWSASSTYYSESVKGRFTISRENAKNTVYLQMNSLKPEDTAVYYCAVRASPFVAGSYDPSDDPADYGSWGQGTQVIVSS
notes: as for B1
B24: FJ1427 P035MP03H10 (VHH)
VHH: QVQLVESGGGLVQAGGSLRLSCAASGRTFSTTEMGWFRQAPGKEREFVAAITWTGRGTMYAESVEGRFTISRENAKNMVYLQMNSLKPEDTAIYYCAAARRGRAAVRSEGGYDFWGQGTQVTVSS
notes: as for B1
B25: FJ1427 P035MP03D11 (VHH)
VHH: QVQLVESGGGLVQAGGSLRLSCAASGRTFSTTDVGWFRQAPGKEREFVAAITWSSHSTLYADSVEGRFTVTRENAKNTVYLQMNSLKPEDTAVYYCAAVRRGWAVVRTEGAYDFWGQGTQVTVSA
notes: as for B1
B26: FJ1427 P035MP03F11 (VHH)
VHH: QVQLVESGGGLAQAGGSLRLSCAASGRTFSQDAKAWFRQAPGKEREFVAAITWSGRDTDYADSVKGRFTIARDNAKNTVYLQMDSLKPEDTAVYYCAVYPQGTIGPYFRSSNHYDYWGQGTQVTVSS
notes: as for B1
B27: FJ1427 P035MP03C12 (VHH)
VHH: QVQLVESGGGLVQAGGSLRLSCAASGRAFSTYSMGWFRQTPGKEREFVAIISESGGIIDYGDSVKGRFTLSRDNAKNTVSLQMSSLQPEDTAVYYCAAARDWFARTAYQYDYWGQGTQVTVSA
notes: as for B1
B28: FJ1427 P035MP06G01 (VHH)
VHH: EVQLVESGGGLVQAGDSLRLSCVVSGRGFSTYTMGWFRQAPGKEREFVAAITWSTGRTSYADSVKGRFTISRENAENTVYLQMNSLELEDTAVYYCATDQVLWTTRPRDMRYWGQGTQVTVSF
notes: as for B1
B29: 35-MP07G01 (VHH)
VHH: QVQLQESGGGLVQGGGSLRLSCAASGGIFSSYAMGWFRQAPGKEREFVAAISRSGRSTNYADSVKGRFTISRDNAKSTVYLQMNSLKPEETAVYYCAAGRYYNSAYDPSPGDFGSWGHGTQVTVSS
notes: VHH in periplasmic extract; also called FJ1427_P035MP07G01; clone nr

Target: T1, human IL-2Rβ (human, UniProt P14784 27-240, limits assumed)
T1 construct: Recombinant protein, coated (ELISA) or immobilised on CM5 (SPR); also called hu IL-2R; interleukin 2 receptor β-chain
T1 sequence: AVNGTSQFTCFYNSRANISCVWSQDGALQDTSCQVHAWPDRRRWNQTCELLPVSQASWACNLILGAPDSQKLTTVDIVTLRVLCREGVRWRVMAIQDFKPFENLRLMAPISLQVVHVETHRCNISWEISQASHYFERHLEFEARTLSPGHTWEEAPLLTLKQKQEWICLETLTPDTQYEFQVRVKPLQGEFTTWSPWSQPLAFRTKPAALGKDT
Assay: P.E. binding ELISA on coated protein
Protocol: (§1) In a binding ELISA, human or mouse IL-2Rα, IL-2Rβ and IL-2Rγ proteins were coated directly on maxisorp microtiter plates overnight at 4° C. Free binding sites were blocked using 4% Marvel in PBS for 1 hour. Next, 1:5 dilution of P.E. in 1% Marvel/PBS were added to wells and incubated for 1 hour. […] Binding specificity was determined based on O.D. at 450 nm values compared to negative controls.

Compared with B1, B2 is higher in “P.E. binding ELISA OD” value: 0.624 OD450 nm for the first, 1.26 OD450 nm for the second.

First: B3
Second: B4
The “P.E. binding ELISA OD” value of the first is higher: 0.843 OD450 nm for the first, 0.38 OD450 nm for the second.

Going from B5 to B6, the “P.E. binding ELISA OD” value falls from 0.649 OD450 nm to 0.348 OD450 nm.

Going from B7 to B8, the “P.E. binding ELISA OD” value rises from 0.435 OD450 nm to 1.34 OD450 nm.

First: B9
Second: B10
The “P.E. binding ELISA OD” value of the first is lower: 0.148 OD450 nm for the first, 0.72 OD450 nm for the second.

Compared with B11, B12 is higher in “P.E. binding ELISA OD” value: 0.23 OD450 nm for the first, 0.914 OD450 nm for the second.

First: B13
Second: B14
The “P.E. binding ELISA OD” value of the first is lower: 0.393 OD450 nm for the first, 1.11 OD450 nm for the second.

First: B15
Second: B16
The “P.E. binding ELISA OD” value of the first is higher: 0.621 OD450 nm for the first, 0.307 OD450 nm for the second.

Compared with B17, B18 is lower in “P.E. binding ELISA OD” value: 0.372 OD450 nm for the first, 0.201 OD450 nm for the second.

Going from B19 to B20, the “P.E. binding ELISA OD” value falls from 0.208 OD450 nm to 0.166 OD450 nm.

Going from B21 to B22, the “P.E. binding ELISA OD” value rises from 0.118 OD450 nm to 0.398 OD450 nm.

First: B23
Second: B24
The “P.E. binding ELISA OD” value of the first is lower: 0.26 OD450 nm for the first, 0.578 OD450 nm for the second.

Going from B25 to B26, the “P.E. binding ELISA OD” value rises from 0.118 OD450 nm to 0.474 OD450 nm.

First: B27
Second: B28
The “P.E. binding ELISA OD” value of the first is lower: 0.321 OD450 nm for the first, 0.557 OD450 nm for the second.

Target: T1, human IL-2Rβ
Assay: SPR (Biacore), P.E. off-rate ranking

First: B1
Second: B2
The koff of the first is 2.7-fold higher: 0.00148 s⁻¹ for the first, 0.00055 s⁻¹ for the second.

First: B3
Second: B4
The koff of the first is 1.7-fold lower: 0.000713 s⁻¹ for the first, 0.00122 s⁻¹ for the second.

First: B5
Second: B6
The koff of the first is 3.1-fold higher: 0.00172 s⁻¹ for the first, 0.000561 s⁻¹ for the second.

First: B7
Second: B8
The koff of the first is 1.6-fold higher: 0.000853 s⁻¹ for the first, 0.000544 s⁻¹ for the second.

B9 and B10 are within 1.5-fold of each other in koff: 0.00149 s⁻¹ for the first, 0.00101 s⁻¹ for the second.

B11 and B12 are within 1.5-fold of each other in koff: 0.000526 s⁻¹ for the first, 0.000351 s⁻¹ for the second.

B13 and B14 are within 1.5-fold of each other in koff: 0.000195 s⁻¹ for the first, 0.000149 s⁻¹ for the second.

B15 and B16 are within 1.5-fold of each other in koff: 0.000347 s⁻¹ for the first, 0.000281 s⁻¹ for the second.

Going from B17 to B18, the koff rises from 0.000533 s⁻¹ to 0.00286 s⁻¹ (5.4-fold).

Compared with B19, B20 is 3.8-fold higher in koff: 0.00048 s⁻¹ for the first, 0.00184 s⁻¹ for the second.

Compared with B21, B22 is 1.7-fold higher in koff: 0.0012 s⁻¹ for the first, 0.00207 s⁻¹ for the second.

Compared with B23, B24 is 1.5-fold lower in koff: 0.00165 s⁻¹ for the first, 0.00109 s⁻¹ for the second.

Compared with B25, B26 is 3.7-fold lower in koff: 0.00102 s⁻¹ for the first, 0.000277 s⁻¹ for the second.

Compared with B27, B28 is 9.8-fold lower in koff: 0.0014 s⁻¹ for the first, 0.000143 s⁻¹ for the second.

Target: T2, human IL-2Rγ (common cytokine receptor γ-chain) (human, UniProt P31785 23-262, limits assumed)
T2 construct: Recombinant protein coated on the plate or immobilised on a CM5 chip; also called hu IL-2R; CD132
T2 sequence: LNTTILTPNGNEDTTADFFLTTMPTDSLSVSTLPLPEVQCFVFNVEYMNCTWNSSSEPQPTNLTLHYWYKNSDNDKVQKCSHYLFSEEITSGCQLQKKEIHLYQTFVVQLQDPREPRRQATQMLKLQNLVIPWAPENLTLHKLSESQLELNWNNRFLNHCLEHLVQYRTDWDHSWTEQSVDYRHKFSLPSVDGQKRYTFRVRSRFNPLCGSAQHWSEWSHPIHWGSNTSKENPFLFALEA
Assay: PE binding ELISA, periplasmic extract on coated protein
Protocol: as §1

In the case of B29, the “OD (PE binding ELISA)” value is reported as 0.134 OD450 nm.
